Measured values: PMC11653685, “Crystal structure of Alzheimer's disease phospholipase D3 provides a molecular basis for understanding its normal and pathological functions” (The Febs Journal, 2024)

Target: the molecule itself
Test: crystal structure; hPLD3 luminal domain with the hexa-His tag left on; crystals grown at 20 °C in 0.17 M ammonium sulfate, 15% glycerol, 25% PEG 4000; 2.3 Å; two molecules in the asymmetric unit

B1: human phospholipase D3 (hPLD3) luminal domain, residues N71-L490 (domain or fragment, UniProt Q8IV08 71-490, looked up)
chain: NQRPAPCYDPCEAVLVESIPEGLDFPNASTGNPSTSQAWLGLLAGAHSSLDIASFYWTLTNNDTHTQEPSAQQGEEVLRQLQTLAPKGVNVRIAVSKPSGPQPQADLQALLQSGAQVRMVDMQKLTHGVLHTKFWVVDQTHFYLGSANMDWRSLTQVKELGVVMYNCSCLARDLTKIFEAYWFLGQAGSSIPSTWPRFYDTRYNQETPMEICLNGTPALAYLASAPPPLCPSGRTPDLKALLNVVDNARSFIYVAVMNYLPTLEFSHPHRFWPAIDDGLRRATYERGVKVRLLISCWGHSEPSMRAFLLSLAALRDNHTHSDIQVKLFVVPADEAQARIPYARVNHNKYMVTERATYIGTSNWSGNYFTETAGTSLLVTQNGRGGLRSQLEAIFLRDWDSPYSHDLDTSADSVGNACRLL
modifications: N-linked GlcNAc at N236 and N284 (seen in the electron density)
notes: also called soluble form of the enzyme; source: Expi293 GnTI- cells, transfected, secreted; purified from culture supernatant (HisTrap excel, Superdex 200 SEC); not shown: His6, N-terminal, kept
With B1 as the protein, how does the “stoichiometry N” value read?
Its value is 2.
